Results published in patent US20210188951A1 (Merck Sharp & Dohme, published 2021).

B1: palivizumab (SYNAGIS) (antibody, V domains shown)
VH: QVTLRESGPALVKPTQTLTLTCTFSGFSLSTSGMSVGWIRQPPGKALEWLADIWWDDKKDYNPSLKSRLTISKDTSKNQVVLKVTNMDPADTATYYCARSMITNWYFDVWGAGTTVTVSS
VL: DIQMTQSPSTLSASVGDRVTITCKCQLSVGYMHWYQQKPGKAPKLLIYDTSKLASGVPSRFSGSGSGTEFTLTISSLQPDDFATYYCFQGSGYPFTFGGGTKLEIK
B2: D25 antibody (antibody, V domains shown)
VH: QVQLVQSGAEVKKPGSSVMVSCQASGGPLRNYIINWLRQAPGQGPEWMGGIIPVLGTVHYAPKFQGRVTITADESTDTAYIHLISLRSEDTAMYYCATETALVVSTTYLPHYFDNWGQGTLVTVSS
VL: DIQMTQSPSSLSAAVGDRVTITCQASQDIVNYLNWYQQKPGKAPKLLIYVASNLETGVPSRFSGSGSGTDFSLTISSLQPEDVATYYCQQYDNLPLTFGGGTKVEIKR
B3: RB1+YTE (human IgG1 with M252Y/S254T/T256E in the Fc) (antibody, V domains shown)
VH: EVQLVESGGGLVRPGRSLRLSCTVSGFSFDDSAMSWVRQAPGKGLEWISFIKSKTYGGTKEYAASVKGRFTISRDDSKNIAYLQMNSLKTEDTAVYYCTRGAPYGGNSDYYYGLDVWGQGTTVTVSS
VL: DIQMTQSPSSLSASVGDRVTITCRTSQDVRGALAWYQQKPGKAPKLLIFDASSLETGVPSRFSGSGSGTVFTLTISSLQPEDFAAYYCQQFLDFPFTFGQGTRLEIKR
B4: RB1 (recombinant human IgG1, CHO-3E7 expressed) (antibody, V domains shown)
VH: B3 VH
VL: B3 VL
notes: Variable domains converted to human IgG1 and expressed in CHO-3E7 cells; also called RB1 MAb; anti-human RSV F protein antibody RB1

Key:
[1] = molecular target: human RSV post-fusion F protein LZF21 (human respiratory syncytial virus (hRSV), UniProt P03420 26-524); experiment: ELISA on coated post-F
[2] = molecular target: human RSV pre-fusion F protein (human respiratory syncytial virus (hRSV), UniProt P03420 26-513); experiment: ELISA on coated pre-F
[3] = molecular target: T1, human RSV post-fusion F protein LZF21 (human respiratory syncytial virus (hRSV), UniProt P03420 26-524); experiment: SPR (Biacore)
T1 construct: extracellular domain; Trimeric; also called LZF21-biotin

[4] = molecular target: T2, human RSV pre-fusion F protein (human respiratory syncytial virus (hRSV), UniProt P03420 26-513); experiment: SPR (Biacore)
T2 construct: also called hRSV pre-F

[5] = molecular target: T3, human RSV A F protein (ELISA of Example 6; pre- or post-fusion form not stated) (human RSV A, UniProt P03420 26-513); experiment: ELISA, RSV A F protein on the plate, antibody titrated, OD450
[6] = molecular target: T3, human RSV A F protein (ELISA of Example …); experiment: ELISA on coated F protein; lower end of the range
[7] = molecular target: T1, human RSV post-fusion F protein LZF21; experiment: ELISA on coated post-F
[8] = molecular target: T1, human RSV post-fusion F protein LZF21; experiment: SPR, Biacore T200, 1:1 Langmuir fit
Source text: (§1) Background subtraction binding sensorgrams were used for analyzing the rate constant of association (kₐ) and dissociation (kd), and the equilibrium dissociation constant KD. The resulting data sets were fitted with a 1:1 Langmuir Binding Model using the Biacore T200 evaluation software (version 2.0).

[9] = molecular target: T2, human RSV pre-fusion F protein; experiment: SPR, Biacore T200, 1:1 Langmuir fit
Source text: as §1

[10] = molecular target: T4, RSV-F protein R429A mutant, expressed in human cells (UniProt P03420 26-574); experiment: shotgun mutagenesis alanine scan, antibody binding to F mutant expressed in human cells
T4 construct: whole, on cells

[11] = molecular target: T5, RSV-F protein I432A mutant, expressed in human cells (UniProt P03420 26-574); experiment: as above
T5 construct: whole, on cells

[12] = molecular target: T2, human RSV pre-fusion F protein; experiment: ELISA on coated pre-F

Binder	EC50 [2]	Kd [3]	koff [3]	kon [3]	Kd [4]	koff [4]	kon [4]	further results
B1	17.4 ng/mL	–	–	–	–	–	–	EC50 [1]: 10.5 ng/mL
B2	8.94 ng/mL	–	–	–	–	–	–	–
B3	–	0.48 nM	0.0007 s⁻¹	1.4e+06 M⁻¹ s⁻¹	0.071 nM	0.00023 s⁻¹	3.2e+06 M⁻¹ s⁻¹	EC50 [5]: 2.24 ng/mL; EC50 [6]: 1.97 to 2.46 ng/mL
B4	–	0.41 nM	0.0009 s⁻¹	2.2e+06 M⁻¹ s⁻¹	0.031 nM	0.00014 s⁻¹	4.4e+06 M⁻¹ s⁻¹	EC50 [7]: 14.1 ng/mL; Kd [8]: 0.41 nM; koff [8]: 0.0009 s⁻¹; kon [8]: 2.2e+06 M⁻¹ s⁻¹; Kd [9]: 0.031 nM; koff [9]: 0.00014 s⁻¹; kon [9]: 4.4e+06 M⁻¹ s⁻¹; Binding Reactivity (% WT) [10]: 33.1 % WT; Binding Reactivity (% WT) [11]: 36.7 % WT; EC50 [12]: 7.05 ng/mL
